Data: patent publication US20210215708A1 (University of California, published 2021)

Target: BD1-EGFP-HOTag6 (UniProt O60885 44-168)
Assay: cell-based or functional assay

brightness of the EGFP droplets after ARV-825: 10 fold
B1: CRBN-EGFP-HOTag3 (other, not shown: large carriers)
chain: MAGEGDQQDAAHNMGNHLPLLPAESEEEDEMEVEDQDSKEAKKPNIINFDTSLPTSHTYLGADMEEFHGRTLHDDDSCQVIPVLPQVMMILIPGQTLPLQLFHPQEVSMVRNLIQKDRTFAVLAYSNVQEREAQFGTTAEIYAYREEQDFGIEIVKVKAIGRQRFKVLELRTQSDGIQQAKVQILPECVLPSTMSAVQLESLNKCQIFPSKPVSREDQCSYKWWQKYQKRKFHCANLTSWPRWLYSLYDAETLMDRIKKQLREWDENLKDDSLPSNPIDFSYRVAACLPIDDVLRIQLLKIGSAIQRLRCELDIMNKCTSLCCKQCQETEITTKNEIFSLSLCGPMAAYVNPHGYVHETLTVYKACNLNLIGRPSTEHSWFPGYAWTVAQCKICASHIGWKFTATKKDMSPQKFWGLTRSALLPTIPDTEDEISPDKVILCLGEIAKSLKEIAKSLKEIAWSLKEIAKSLKG
